Measured values reported in the supplement of paper PMC9112550, “Optimization of the antimicrobial peptide Bac7 by deep mutational scanning” (BMC Biology, 2022).

Tested on: Escherichia coli TOP10
Assay: shrunken log2 fold change of peptide-encoding DNA abundance (4.5 h post-induction vs induction); higher = less antimicrobial activity (less host growth inhibition)
Settings: time post-induction: 4.5 h; library: site-saturation at positions 5, 18, 19, 20
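Note: peptides expressed intracellularly from a pBAD plasmid library in pooled LB shake-flask culture, induced with 0.3% L-arabinose, DNA abundance read by NGS, three biological replicates, DESeq2 with apeglm shrinkage.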

Sequence	shrunken log2 fold change
RRIRERPPRLPRPRPRPKERPRP	0.547
RRIRGRPPRLPRPRPRPHYPPRP	-0.222
RRIRWRPPRLPRPRPRPWSFPRP	-0.0355
RRIRVRPPRLPRPRPRPPCDPRP	0.52
RRIRFRPPRLPRPRPRPSLPPRP	0.0593
RRIRYRPPRLPRPRPRPMSMPRP	-0.304
RRIRRRPPRLPRPRPRPSDVPRP	-0.374
RRIRLRPPRLPRPRPRPFGLPRP	-0.114
RRIRVRPPRLPRPRPRPRHNPRP	-0.389
RRIRDRPPRLPRPRPRPLGGPRP	0.461
RRIRTRPPRLPRPRPRPGRSPRP	0.194
RRIRMRPPRLPRPRPRPRYHPRP	-0.186
RRIRNRPPRLPRPRPRPTWVPRP	0.0257
RRIRFRPPRLPRPRPRPYMDPRP	-0.0184
RRIRVRPPRLPRPRPRPVRYPRP	-0.136
RRIRHRPPRLPRPRPRPFIGPRP	-0.231
RRIRARPPRLPRPRPRPNHQPRP	0.243
RRIRSRPPRLPRPRPRPPRIPRP	0.132
RRIRMRPPRLPRPRPRPFRAPRP	0.452
RRIRLRPPRLPRPRPRPPDKPRP	0.0844
RRIRTRPPRLPRPRPRPVPPPRP	0.396
RRIRERPPRLPRPRPRPVKGPRP	0.0229
RRIRRRPPRLPRPRPRPLYFPRP	-0.115
RRIRSRPPRLPRPRPRPHAGPRP	0.428
RRIRLRPPRLPRPRPRPYWVPRP	0.135

Sequence	shrunken log2 fold change
RRIRTRPPRLPRPRPRPDCHPRP	-0.0374
RRIRRRPPRLPRPRPRPRPMPRP	0.76
RRIRMRPPRLPRPRPRPMQNPRP	0.365
RRIRGRPPRLPRPRPRPPYLPRP	-0.0342
RRIRYRPPRLPRPRPRPNQIPRP	-0.0468
RRIRTRPPRLPRPRPRPRAYPRP	-0.339
RRIRDRPPRLPRPRPRPIQIPRP	-0.384
RRIRIRPPRLPRPRPRPNCMPRP	-0.287
RRIRERPPRLPRPRPRPLTPPRP	-0.123
RRIRARPPRLPRPRPRPGITPRP	0.335
RRIRRRPPRLPRPRPRPGEMPRP	0.122
RRIRHRPPRLPRPRPRPNITPRP	-0.489
RRIRIRPPRLPRPRPRPVGWPRP	0.668
RRIRPRPPRLPRPRPRPVVDPRP	-0.107
RRIRMRPPRLPRPRPRPHSDPRP	2.6
RRIRQRPPRLPRPRPRPQTWPRP	0.126
RRIRERPPRLPRPRPRPYQWPRP	0.0039
RRIRVRPPRLPRPRPRPIRCPRP	-0.0498
RRIRFRPPRLPRPRPRPTANPRP	-0.0711
RRIRHRPPRLPRPRPRPSQDPRP	-0.032
RRIRVRPPRLPRPRPRPGQRPRP	0.0272
RRIRDRPPRLPRPRPRPQLKPRP	-0.0603
RRIRGRPPRLPRPRPRPAIDPRP	0.568
RRIRWRPPRLPRPRPRPIDYPRP	-0.235
RRIRPRPPRLPRPRPRPVDWPRP	0.656

Sequence	shrunken log2 fold change
RRIRERPPRLPRPRPRPSDPPRP	-0.417
RRIRPRPPRLPRPRPRPYPMPRP	-0.0996
RRIRARPPRLPRPRPRPGTTPRP	0.143
RRIRRRPPRLPRPRPRPKRHPRP	0.227
RRIRHRPPRLPRPRPRPWDDPRP	-0.0102
RRIRCRPPRLPRPRPRPPVAPRP	0.443
RRIRHRPPRLPRPRPRPAMEPRP	0.0691
RRIRDRPPRLPRPRPRPLELPRP	-0.014
RRIRRRPPRLPRPRPRPQIEPRP	0.694
RRIRGRPPRLPRPRPRPKSNPRP	0.446
RRIRLRPPRLPRPRPRPPCSPRP	-0.0182
RRIRKRPPRLPRPRPRPNGKPRP	-0.114
RRIRFRPPRLPRPRPRPYFTPRP	-1.09
RRIRCRPPRLPRPRPRPWTWPRP	0.00573
RRIRQRPPRLPRPRPRPYFPPRP	-0.283
RRIRGRPPRLPRPRPRPWNHPRP	-0.052
RRIRWRPPRLPRPRPRPAETPRP	0.0775
RRIRYRPPRLPRPRPRPNTVPRP	-0.301
RRIRWRPPRLPRPRPRPHANPRP	-0.00914
RRIRWRPPRLPRPRPRPFPEPRP	-0.145
RRIRMRPPRLPRPRPRPNSAPRP	0.0568
RRIRFRPPRLPRPRPRPTEIPRP	-0.413
RRIRQRPPRLPRPRPRPSKDPRP	-0.462
RRIRCRPPRLPRPRPRPWYIPRP	-0.331
RRIRMRPPRLPRPRPRPGYTPRP	-0.177

Sequence	shrunken log2 fold change
RRIRMRPPRLPRPRPRPPWRPRP	1.34
RRIRVRPPRLPRPRPRPSRNPRP	-0.0696
RRIRNRPPRLPRPRPRPHVCPRP	-0.00663
RRIRVRPPRLPRPRPRPPELPRP	0.186
RRIRQRPPRLPRPRPRPSCLPRP	-0.0903
RRIRGRPPRLPRPRPRPQESPRP	-0.0432
RRIRKRPPRLPRPRPRPVGIPRP	0.131
RRIRNRPPRLPRPRPRPEYRPRP	-0.159
RRIRPRPPRLPRPRPRPWETPRP	0.124
RRIRFRPPRLPRPRPRPNMAPRP	-0.245
RRIRNRPPRLPRPRPRPACYPRP	-0.265
RRIRHRPPRLPRPRPRPCVGPRP	0.116
RRIRLRPPRLPRPRPRPRSKPRP	-0.111
RRIRRRPPRLPRPRPRPRPWPRP	0.737
RRIRCRPPRLPRPRPRPFGFPRP	-0.388
RRIRKRPPRLPRPRPRPDFPPRP	0.416
RRIRSRPPRLPRPRPRPPAPPRP	0.906
RRIRPRPPRLPRPRPRPPLMPRP	0.199
RRIRRRPPRLPRPRPRPMVPPRP	0.135
RRIRYRPPRLPRPRPRPWCVPRP	-0.55
RRIRLRPPRLPRPRPRPQLAPRP	0.384
RRIRYRPPRLPRPRPRPSSKPRP	-1
RRIRQRPPRLPRPRPRPCRAPRP	0.106
RRIRCRPPRLPRPRPRPQFAPRP	-0.239
RRIRSRPPRLPRPRPRPGKSPRP	-0.0274

Sequence	shrunken log2 fold change
RRIRVRPPRLPRPRPRPKEAPRP	-0.0421
RRIRSRPPRLPRPRPRPRNDPRP	-0.181
RRIRDRPPRLPRPRPRPQHSPRP	-0.312
RRIRGRPPRLPRPRPRPIFRPRP	0.0691
RRIRLRPPRLPRPRPRPAVFPRP	0.142
RRIRWRPPRLPRPRPRPQNSPRP	0.0838
RRIRRRPPRLPRPRPRPFVVPRP	0.0981
RRIRVRPPRLPRPRPRPVEMPRP	-0.0393
RRIRVRPPRLPRPRPRPQWDPRP	-0.0347
RRIRLRPPRLPRPRPRPNISPRP	-0.373
RRIRKRPPRLPRPRPRPLESPRP	0.515
RRIRRRPPRLPRPRPRPVQMPRP	0.158
RRIRTRPPRLPRPRPRPLFIPRP	-0.746
RRIRDRPPRLPRPRPRPAWEPRP	1.07
RRIRIRPPRLPRPRPRPTVRPRP	0.158
RRIRLRPPRLPRPRPRPITGPRP	-0.0243
RRIRDRPPRLPRPRPRPQAFPRP	-0.184
RRIRARPPRLPRPRPRPYNTPRP	-0.606
RRIRARPPRLPRPRPRPSQFPRP	-0.0956
RRIRLRPPRLPRPRPRPWRKPRP	0.125
RRIRPRPPRLPRPRPRPKMRPRP	0.903
RRIRSRPPRLPRPRPRPHEAPRP	0.0366
RRIRVRPPRLPRPRPRPIQWPRP	0.138
RRIRRRPPRLPRPRPRPWNKPRP	0.0897
RRIRYRPPRLPRPRPRPMIPPRP	-0.727

Sequence	shrunken log2 fold change
RRIRYRPPRLPRPRPRPTVYPRP	-0.686
RRIRIRPPRLPRPRPRPPHTPRP	-0.055
RRIRYRPPRLPRPRPRPRSSPRP	0.069
RRIRKRPPRLPRPRPRPRFQPRP	-0.00313
RRIRYRPPRLPRPRPRPCRGPRP	-0.157
RRIRDRPPRLPRPRPRPVFIPRP	-0.476
RRIRVRPPRLPRPRPRPKMQPRP	0.0937
RRIRFRPPRLPRPRPRPNQLPRP	-1.2
RRIRWRPPRLPRPRPRPFDIPRP	-0.838
RRIRTRPPRLPRPRPRPIWQPRP	0.168
RRIRARPPRLPRPRPRPTAMPRP	0.822
RRIRGRPPRLPRPRPRPSNAPRP	0.216
RRIRWRPPRLPRPRPRPMPKPRP	0.115
RRIRWRPPRLPRPRPRPKIAPRP	0.41
RRIRDRPPRLPRPRPRPHMDPRP	0.0662
RRIRKRPPRLPRPRPRPDTYPRP	-0.0205
RRIRKRPPRLPRPRPRPWQTPRP	0.146
RRIRWRPPRLPRPRPRPQPEPRP	0.139
RRIRSRPPRLPRPRPRPRYHPRP	-0.339
RRIRPRPPRLPRPRPRPDFPPRP	-0.0174
RRIRIRPPRLPRPRPRPTCHPRP	-0.467
RRIRVRPPRLPRPRPRPCITPRP	-0.233
RRIRVRPPRLPRPRPRPPTVPRP	0.167
RRIRSRPPRLPRPRPRPPQIPRP	0.138
RRIRMRPPRLPRPRPRPSMLPRP	0.0158
